Laboratory results: patent US8168591 (University of California, dated 2012)

Molecular target: T1, recombinant soluble integrin αvβ3 (UniProt P06756 31-992; P05106 27-718)
T1 construct: extracellular domain; 'extracellular domain' is my reading of that; Made in CHO K1 cells and purified on Ni-NTA; The docking simulation used PDB 1L5G; also called soluble αvβ3
Assay: Table 2 grade, αvβ3 binding (ELISA-type assay with soluble αvβ3)

T1 sequence (P06756 31-992, chain 1 of 2): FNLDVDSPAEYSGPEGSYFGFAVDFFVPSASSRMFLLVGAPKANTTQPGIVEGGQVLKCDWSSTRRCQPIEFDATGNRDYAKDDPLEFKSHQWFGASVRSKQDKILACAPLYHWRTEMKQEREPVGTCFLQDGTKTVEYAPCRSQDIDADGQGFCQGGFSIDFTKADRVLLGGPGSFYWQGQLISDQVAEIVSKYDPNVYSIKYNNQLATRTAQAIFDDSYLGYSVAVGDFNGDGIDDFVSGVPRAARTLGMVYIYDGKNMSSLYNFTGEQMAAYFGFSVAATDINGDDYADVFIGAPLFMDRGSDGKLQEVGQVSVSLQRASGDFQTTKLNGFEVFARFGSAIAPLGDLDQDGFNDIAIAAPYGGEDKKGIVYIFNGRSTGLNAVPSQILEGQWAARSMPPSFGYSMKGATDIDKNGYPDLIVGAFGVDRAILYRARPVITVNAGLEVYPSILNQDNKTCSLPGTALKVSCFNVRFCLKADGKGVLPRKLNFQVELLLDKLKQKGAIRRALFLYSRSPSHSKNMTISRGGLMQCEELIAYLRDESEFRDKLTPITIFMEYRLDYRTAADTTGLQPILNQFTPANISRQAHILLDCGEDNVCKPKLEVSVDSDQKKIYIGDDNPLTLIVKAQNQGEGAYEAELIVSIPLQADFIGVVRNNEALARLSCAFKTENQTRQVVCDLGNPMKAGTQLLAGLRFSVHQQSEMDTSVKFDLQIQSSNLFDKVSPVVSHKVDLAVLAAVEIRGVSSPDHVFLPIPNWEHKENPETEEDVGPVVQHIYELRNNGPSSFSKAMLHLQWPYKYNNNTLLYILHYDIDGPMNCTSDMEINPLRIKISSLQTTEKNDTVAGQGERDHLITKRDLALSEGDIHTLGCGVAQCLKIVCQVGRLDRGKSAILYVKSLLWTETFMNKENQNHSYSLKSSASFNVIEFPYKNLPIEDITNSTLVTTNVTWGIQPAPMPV
T1 sequence (P05106 27-718, chain 2 of 2): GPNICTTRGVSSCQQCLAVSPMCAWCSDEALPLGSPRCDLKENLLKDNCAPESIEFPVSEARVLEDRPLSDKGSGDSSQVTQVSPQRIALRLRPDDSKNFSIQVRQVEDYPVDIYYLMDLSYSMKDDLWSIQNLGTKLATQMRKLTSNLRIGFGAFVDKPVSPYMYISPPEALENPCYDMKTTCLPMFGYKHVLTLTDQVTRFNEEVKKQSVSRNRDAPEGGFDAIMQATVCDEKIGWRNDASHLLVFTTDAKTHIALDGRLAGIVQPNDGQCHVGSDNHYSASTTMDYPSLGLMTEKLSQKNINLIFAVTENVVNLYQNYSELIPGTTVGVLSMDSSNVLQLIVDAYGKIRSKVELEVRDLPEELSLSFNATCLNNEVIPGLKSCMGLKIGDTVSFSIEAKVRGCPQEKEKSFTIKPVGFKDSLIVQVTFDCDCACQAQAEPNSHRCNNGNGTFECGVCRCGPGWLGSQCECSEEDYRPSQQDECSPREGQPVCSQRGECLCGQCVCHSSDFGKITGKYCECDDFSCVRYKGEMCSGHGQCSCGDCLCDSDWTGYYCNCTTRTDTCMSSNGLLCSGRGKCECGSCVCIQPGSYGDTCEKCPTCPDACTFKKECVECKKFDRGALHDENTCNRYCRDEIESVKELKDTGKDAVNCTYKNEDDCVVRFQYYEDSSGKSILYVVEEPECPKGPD

B1: FGF-1 Glu102/Tyr109/Asn110 to Ala mutant (3×A) (ligand)
chain: FNLPPGNYKKPKLLYCSNGGHFLRILPDGTVDGTRDRSDQHIQLQLSAESVGEVYIKSTETGQYLAMDTDGLLYGSQTPNEECLFLARLEENHAATYISKKHAEKNWFVGLKKNGSCKRGPRTHYGQKAILFLPLPVSSD
notes: also called 3xA; E1 02A/Y109A/Q110A
  binding result: binds
